# Tested on: PSA activatable agent A10 (compound A10)
substance,measurement,value
enzymatically active prostate specific antigen,"fluorescence activation (kinetic fluorescence readings, cleavage of the quenched peptide)",Test agent (compound A10-0.5 µM final concentration of agent) was activated in the presence of active PSA (0.1 µM final concentration of activated enzyme)
